Source: patent CN113603773A (FIRST HOSPITAL CHINA MEDICAL UNIV, dated 2021)

Columns and labels:
[1] = biological target: T1, 人源淀粉样蛋白42 Aβ42 单体 (human, UniProt P05067 672-713); test: ELISA, Aβ coated at 5 μg/mL, 7B8 diluted 1:20,000, OD450
T1 construct: domain: Aβ42; Monomer preparation; also called Aβ42 mon

[2] = biological target: T2, 人源淀粉样蛋白42 Aβ42 纤维体 (human, UniProt P05067 672-713); test: dot blot on nitrocellulose, ECL
T2 construct: domain: Aβ42; Fibril preparation; also called Aβ42 fib

[3] = biological target: T3, 人源淀粉样蛋白42 Aβ42 寡聚体 (human, UniProt P05067 672-713); test: dot blot on nitrocellulose, ECL
T3 construct: domain: Aβ42; Oligomer preparation; also called Aβ42 oli
T3 sequence (P05067 672-713 limits assumed): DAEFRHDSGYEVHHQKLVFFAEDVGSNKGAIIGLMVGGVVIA

Measured: binding result

T2 sequence (P05067 672-713 limits assumed): as above
T1 sequence (P05067 672-713 limits assumed): as above

B1: 靶向淀粉样蛋白的单克隆抗体7B8 (antibody, mouse IgG1, V domains shown)
VH: QVQLQQPGAELVKPGASVKLSCKTSDYSFTSYWMHWVKQRPGQGLEWIGEINPSNGRKKYNEKFKSKATLTVDTSSSTAYMQLSSLTSEDSAVYYCAREGRGYWGQGTTLTVSS
VL: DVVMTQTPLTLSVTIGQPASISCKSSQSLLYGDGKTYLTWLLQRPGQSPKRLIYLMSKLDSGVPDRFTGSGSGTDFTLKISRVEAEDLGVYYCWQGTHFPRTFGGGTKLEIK
notes: also called 抗Aβ3-10的单克隆抗体
binds: [1] | [2] | [3]
